Here are results for 1 molecule from article PMC5096685, “Characterization of CgHIFα-Like, a Novel bHLH-PAS Transcription Factor Family Member, and Its Role under Hypoxia Stress in the Pacific Oyster Crassostrea gigas”.

One data set concerns the target T1, CgHIFα bHLH-PAS (Crassostrea gigas, UniProt B6ZGN4 1-356).
T1 sequence: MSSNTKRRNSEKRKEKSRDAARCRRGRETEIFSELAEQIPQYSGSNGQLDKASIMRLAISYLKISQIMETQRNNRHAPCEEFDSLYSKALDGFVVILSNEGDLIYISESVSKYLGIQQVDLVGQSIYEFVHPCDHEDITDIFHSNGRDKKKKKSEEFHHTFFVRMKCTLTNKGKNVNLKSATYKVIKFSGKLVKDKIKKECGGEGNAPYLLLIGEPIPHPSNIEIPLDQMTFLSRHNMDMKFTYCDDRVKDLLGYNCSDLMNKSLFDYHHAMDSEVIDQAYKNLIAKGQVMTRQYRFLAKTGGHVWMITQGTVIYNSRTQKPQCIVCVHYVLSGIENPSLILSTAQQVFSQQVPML
In words: EMSA; no ARNT added; positive control; unlabeled Ew 200x competes; anti-His supershift; 10 mM Tris pH 7.5, 50 mM KCl, 1 mM DTT, 50 ng poly(dI-dC) in 20 uL, 20 min at room temperature. The settings on record: protein: recombinant; tags: His (pET30a); label: biotin end label (probe).

The target in data set [1] is T2, CgHIFα-like bHLH-PAS (CgHIFαlike-His) (Crassostrea gigas, UniProt A0A167QPK5 1-385).
T2 sequence: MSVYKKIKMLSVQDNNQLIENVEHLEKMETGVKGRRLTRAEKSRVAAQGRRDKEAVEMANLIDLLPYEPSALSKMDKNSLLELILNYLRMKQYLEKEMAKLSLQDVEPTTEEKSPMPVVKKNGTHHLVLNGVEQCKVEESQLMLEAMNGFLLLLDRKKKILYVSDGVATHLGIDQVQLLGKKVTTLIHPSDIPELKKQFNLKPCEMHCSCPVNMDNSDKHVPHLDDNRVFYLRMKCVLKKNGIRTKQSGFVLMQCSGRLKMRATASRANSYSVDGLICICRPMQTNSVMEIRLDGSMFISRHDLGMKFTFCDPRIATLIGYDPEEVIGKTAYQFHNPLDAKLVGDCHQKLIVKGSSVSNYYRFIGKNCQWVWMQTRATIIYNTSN
In words: EMSA; no ARNT added; 1 ug protein, 20 fmol probe, 50 ng poly(dI-dC); unlabeled Ew 200x competes; anti-His supershift; 10 mM Tris pH 7.5, 50 mM KCl, 1 mM DTT, 50 ng poly(dI-dC) in 20 uL, 20 min at room temperature. The settings on record: protein: recombinant; tags: His (pET30a); label: biotin end label (probe). A general note: In EMSA bound probe runs differently from free probe, usually more slowly.

B1: Ew (human EPO HRE probe) (dsDNA)
DNA 1: GCCCTACGTGCTGTCTCA
DNA 2: TGAGACAGCACGTAGGGC
Take B1: the binding result (with CgHIFα bHLH-PAS; in data set [1]) was “binds” each time.
